Data published in US20030186334A1, “KTS-disintegrins” (Temple University - Of the Commonwealth System of Higher …, priority 2001, published 2003).

Columns and labels:
α6β1 integrin = molecular target: T1, α6β1 integrin (Homo sapiens, UniProt P05556+P23229); experiment: adhesion of α6K562 cells to laminin; type: cell-based; details: α6β1, LM
T1 construct: expressed in transfected cells; host or cells: α6K562 cells

α1β1 integrin [1] = molecular target: T2, α1β1 integrin (Homo sapiens, UniProt P05556+P56199); experiment: adhesion of α1K562 cells to immobilized collagen IV; type: cell-based; details: for IC50: α1K562 cells, α1β1, collagen IV
T2 construct: expressed in transfected cells; host or cells: α1K562 cells
Experimental: Collagen IV (0.2 μg/well) in 0.02 M acetic acid was immobilized by incubation overnight at 4° C. on a 96-well plate. Plates were then blocked with 1% (w/v) BSA (bovine serum albumin) in Hank's Balanced Salt Solution (HBSS) containing 3 mM Mg^2+ at room temperature for 1-2 hours to prevent cells from non-specifically binding to the plates. α1K562 cells were labeled by incubation with 12.5 μM 5-chloromethylfluorescein diacetete (CMFDA) in HBSS for 15 minutes at 37° C. CMFDA labeled α1K562 cells were then pelleted, washed and resuspended in HBSS buffer containing 3 mM Mg^2+ and 1% BSA. […] The plates were washed three times with HBSS containing 3 mM Mg^2+ and 1% (w/v) BSA to remove unbound cells. Bound cells were lysed using 0.5% (v/v) Triton X-100 in H2O. Fluorescent CMFDA released by lysis of adherent cells in a given well was read using a Cytofluor 2350 fluorescence plate reader.
(§1) Adhesive ligands for the selected integrins consisted of collagen IV (0.2 μg/well), collagen I, fibronectin, or vascular cell adhesion molecule-1 (VCAM-1). Adhesive ligands in 0.02 M acetic acid were immobilized overnight at 4° C. on a 96-well plate. Plates were then blocked with 1% (w/v) BSA (bovine serum albumin) in Hank's Balanced Salt Solution (HBSS) containing 3 mM Mg^2+ at room temperature for 1-2 hours to prevent cells from non-specifically binding to the plates. α1K562, α2K562, K562, A5, and Jurkat cells expressing the α1β1, α2β1, α5β1, αIIbβ3, and α4β1 integrins respectively were labeled by incubation with 12.5 μM 5-chloromethylfluorescein diacetate (CMFDA) in HBSS for 15 minutes at 37° C. CMFDA labeled cells were then pelleted, washed and resuspended in HBSS buffer containing 3 mM Mg^2+ and 1% (w/v) BSA. […] Plates were then incubated at 37° C. for 30 minutes as indicated in Table 5 and washed three times with HBSS containing 3 mM Mg^2+ and 1% (w/v) BSA to remove unbound cells. Bound cells were lysed using 0.5% (v/v) Triton X-100 in H2O. Fluorescent CMFDA released by lysis of adherent cells in a given well was read using a Cytofluor 2350 fluorescence plate reader.
(§2) The effect of obtustatin, viperisrastatin, echistatin, and eristostatin on the binding of selected integrins to their adhesive ligands was evaluated using the cell adhesion assay described in Example 6. The integrin-expressing cells, integrins and corresponding adhesive ligands, and the results of the cell adhesion assay are shown in Table 6.

α1β1 integrin [2] = molecular target: T2, α1β1 integrin; experiment: adhesion of HS.939T cells to collagen IV; type: cell-based; details: α1β1, Coll IV
α1β1 integrin [3] = molecular target: T3, α1β1 integrin (Mus musculus, UniProt P09055+Q3V3R4); experiment: adhesion of B16F10 cells to collagen IV; type: cell-based; details: for IC50: α1β1, Coll IV
T3 construct: endogenous in cells; host or cells: B16F10 cells

α5β1 integrin = molecular target: T4, α5β1 integrin (Homo sapiens, UniProt P05556+P08648); experiment: adhesion of K562 cells to fibronectin; type: cell-based
T4 construct: endogenous in cells; host or cells: K562 cells
Experimental: as §1, §2

angiogenesis = experiment: Japanese quail chorioallantoic membrane (CAM) angiogenesis assay; type: in vivo; details: 20 μg and 50 μg, in words
Experimental: The disintegrins obtustatin and eristostatin were evaluated for their effect on angiogenesis via a Japanese quail chorioallantoic membrane (CAM) assay, as is known in the art (see, for example, Parsons-Wingerter P et al., “A Novel Assay of Angiogenesis in the Quail Chorioallantoic Membrane: Stimulation by bFGF and Inhibition by Angiostatin According to Fractal Dimension and Grid Intersection.” Microvascular Research 55(3):201-214, 1998, the disclosure of which is herein incorporated by reference).

αvβ3 integrin = molecular target: T5, αvβ3 integrin (Homo sapiens, UniProt P05106+P06756); experiment: adhesion of JY cells to vitronectin; type: cell-based; details: αvβ3, VN
T5 construct: endogenous in cells; host or cells: JY cells

α9β1 integrin = molecular target: T6, α9β1 integrin (Homo sapiens, UniProt P05556+Q13797); experiment: adhesion of SW480α9 cells to VCAM-1; type: cell-based; details: α9β1, VCAM-1
T6 construct: expressed in transfected cells; host or cells: SW480α9 cells

α1β1 integrin [4] = molecular target: T2, α1β1 integrin; experiment: adhesion of α1K562 cells to collagen I; type: cell-based; details: α1β1, Coll I
Experimental: as §1, §2

α4β1 integrin = molecular target: T7, α4β1 integrin (Homo sapiens, UniProt P05556+P13612); experiment: adhesion of Jurkat cells to VCAM-1; type: cell-based; details: α4β1, VCAM-1
T7 construct: endogenous in cells; host or cells: Jurkat cells
Experimental: as §1, §2

α2β1 integrin = α2β1 integrin (Homo sapiens, UniProt P05556+P17301); experiment: adhesion of α2K562 cells to collagen I; type: cell-based; parameters: expressed in transfected cells; host or cells: α2K562 cells
Experimental: as §1, §2

Lewis lung carcinoma = Lewis lung carcinoma growth in syngeneic mouse model; type: in vivo, C57BL/6 mice; details: 5 mg/kg intraperitoneally once daily for eight days
Experimental: Lewis lung carcinoma cells (1×10^6) were injected under the skin of the C57BL/6 mice (Tacoma Inc., Germantown, N.Y.), and tumors were allowed to grow for one week. The average tumor size after one week of growth was approximately 0.08 cm^3. The one-week time-point was called “day 0.” Two treatment groups of four mice each were injected intraperitoneally once daily with either 5 mg/kg obtustatin or 5 mg/kg echistatin beginning on day 0 for a total of eight days. A control group of four mice received only PBS. Tumor volume was measured daily using the formula length×width^2×0.52.

αIIbβ3 integrin = molecular target: T8, αIIbβ3 integrin (Homo sapiens, UniProt P05106+P08514); experiment: adhesion of A5 cells to fibrinogen; type: cell-based
T8 construct: expressed in transfected cells; host or cells: A5 cells
Experimental: as §1, §2

[5] = system: dermal microvascular endothelial cells (EC); experiment: apoptosis by caspase-3 levels in dermal microvascular endothelial cells; type: cell-based
Experimental: (§3) The mechanisms of the cancer-suppressing effect observed for obtustatin were investigated as follows. Dermal microvascular endothelial cells (EC) and human melanoma cells (MV3) were cultured and exposed to TNF-α, vincristine and obtustatin. (TNF-α and vincristine are compounds which induce cell death by apoptosis in both normal and cancerous cells.) Control cells received only vehicle. The extent of apoptosis was measured by determining caspase-3 levels.

[6] = system: human melanoma cells (MV3); experiment: apoptosis by caspase-3 levels in melanoma MV3 cells; type: cell-based
Experimental: as §3

T2 sequence (P56199 29-1179): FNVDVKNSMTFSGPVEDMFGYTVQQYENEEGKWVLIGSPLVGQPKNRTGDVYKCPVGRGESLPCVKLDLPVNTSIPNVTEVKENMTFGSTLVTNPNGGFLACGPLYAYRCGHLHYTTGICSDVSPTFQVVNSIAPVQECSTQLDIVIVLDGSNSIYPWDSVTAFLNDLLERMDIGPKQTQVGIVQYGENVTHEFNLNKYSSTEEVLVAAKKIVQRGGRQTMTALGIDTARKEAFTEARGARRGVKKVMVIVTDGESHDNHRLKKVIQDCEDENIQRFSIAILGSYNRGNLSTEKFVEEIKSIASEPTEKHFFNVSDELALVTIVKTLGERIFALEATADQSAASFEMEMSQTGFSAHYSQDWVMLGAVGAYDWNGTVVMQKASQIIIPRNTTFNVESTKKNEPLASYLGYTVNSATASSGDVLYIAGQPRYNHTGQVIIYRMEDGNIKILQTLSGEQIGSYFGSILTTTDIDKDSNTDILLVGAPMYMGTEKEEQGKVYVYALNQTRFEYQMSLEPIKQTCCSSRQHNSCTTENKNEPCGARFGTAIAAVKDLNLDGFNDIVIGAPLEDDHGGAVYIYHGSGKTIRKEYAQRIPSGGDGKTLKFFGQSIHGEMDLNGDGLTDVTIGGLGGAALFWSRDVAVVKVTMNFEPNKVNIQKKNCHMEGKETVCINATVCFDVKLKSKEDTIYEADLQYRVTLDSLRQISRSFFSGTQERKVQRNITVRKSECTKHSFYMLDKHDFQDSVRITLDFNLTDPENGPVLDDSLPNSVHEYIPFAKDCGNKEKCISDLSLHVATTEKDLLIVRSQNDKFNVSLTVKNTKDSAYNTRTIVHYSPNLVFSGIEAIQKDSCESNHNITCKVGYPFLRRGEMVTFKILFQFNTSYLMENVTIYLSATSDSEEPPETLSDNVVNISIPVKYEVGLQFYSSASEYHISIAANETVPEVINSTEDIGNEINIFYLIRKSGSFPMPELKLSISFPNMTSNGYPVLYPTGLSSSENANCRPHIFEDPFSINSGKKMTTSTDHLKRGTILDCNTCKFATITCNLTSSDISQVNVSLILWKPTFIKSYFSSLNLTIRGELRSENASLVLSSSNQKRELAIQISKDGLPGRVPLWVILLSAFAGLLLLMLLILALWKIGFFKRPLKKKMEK
T2 sequence (P05556 21-798): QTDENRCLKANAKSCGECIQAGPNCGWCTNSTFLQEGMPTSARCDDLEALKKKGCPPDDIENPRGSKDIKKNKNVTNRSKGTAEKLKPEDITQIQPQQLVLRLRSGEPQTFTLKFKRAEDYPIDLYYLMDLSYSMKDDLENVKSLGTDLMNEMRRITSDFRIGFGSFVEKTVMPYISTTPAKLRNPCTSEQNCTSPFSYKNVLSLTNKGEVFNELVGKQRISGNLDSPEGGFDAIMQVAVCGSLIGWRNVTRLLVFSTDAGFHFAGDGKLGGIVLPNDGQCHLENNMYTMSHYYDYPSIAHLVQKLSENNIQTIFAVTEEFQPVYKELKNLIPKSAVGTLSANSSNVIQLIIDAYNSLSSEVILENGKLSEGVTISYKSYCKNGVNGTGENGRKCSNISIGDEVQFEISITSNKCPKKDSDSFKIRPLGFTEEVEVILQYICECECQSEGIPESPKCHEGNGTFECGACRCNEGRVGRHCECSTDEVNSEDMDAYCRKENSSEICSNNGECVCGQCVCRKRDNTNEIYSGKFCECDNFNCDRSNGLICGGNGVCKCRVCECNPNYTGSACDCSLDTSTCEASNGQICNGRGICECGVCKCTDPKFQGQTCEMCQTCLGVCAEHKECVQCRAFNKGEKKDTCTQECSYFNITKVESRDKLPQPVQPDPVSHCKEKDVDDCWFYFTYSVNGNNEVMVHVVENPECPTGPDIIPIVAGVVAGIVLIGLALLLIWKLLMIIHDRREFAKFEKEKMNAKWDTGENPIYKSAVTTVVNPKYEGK
T4 sequence (P08648 42-894 limits assumed): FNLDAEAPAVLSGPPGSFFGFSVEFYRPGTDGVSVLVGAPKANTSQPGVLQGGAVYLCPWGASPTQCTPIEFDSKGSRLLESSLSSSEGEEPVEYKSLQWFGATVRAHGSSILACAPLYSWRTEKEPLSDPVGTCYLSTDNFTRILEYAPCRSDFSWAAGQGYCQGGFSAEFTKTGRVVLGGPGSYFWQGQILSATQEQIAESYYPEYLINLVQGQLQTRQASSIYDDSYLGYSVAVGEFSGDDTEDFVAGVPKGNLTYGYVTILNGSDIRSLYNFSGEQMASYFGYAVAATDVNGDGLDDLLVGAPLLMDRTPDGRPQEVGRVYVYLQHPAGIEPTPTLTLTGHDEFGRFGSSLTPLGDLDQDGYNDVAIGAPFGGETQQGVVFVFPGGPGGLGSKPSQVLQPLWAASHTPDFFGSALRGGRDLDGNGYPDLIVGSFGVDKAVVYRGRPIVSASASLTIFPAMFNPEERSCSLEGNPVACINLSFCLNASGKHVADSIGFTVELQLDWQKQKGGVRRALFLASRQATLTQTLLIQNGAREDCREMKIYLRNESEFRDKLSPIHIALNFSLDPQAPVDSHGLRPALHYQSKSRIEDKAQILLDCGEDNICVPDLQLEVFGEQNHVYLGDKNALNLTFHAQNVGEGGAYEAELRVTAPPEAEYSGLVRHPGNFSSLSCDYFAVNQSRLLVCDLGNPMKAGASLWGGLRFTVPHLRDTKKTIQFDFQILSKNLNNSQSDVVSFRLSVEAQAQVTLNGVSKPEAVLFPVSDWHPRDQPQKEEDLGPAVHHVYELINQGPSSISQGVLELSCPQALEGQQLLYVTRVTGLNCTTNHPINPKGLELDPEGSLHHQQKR
T4 sequence (P08648 895-1049 partner limits assumed): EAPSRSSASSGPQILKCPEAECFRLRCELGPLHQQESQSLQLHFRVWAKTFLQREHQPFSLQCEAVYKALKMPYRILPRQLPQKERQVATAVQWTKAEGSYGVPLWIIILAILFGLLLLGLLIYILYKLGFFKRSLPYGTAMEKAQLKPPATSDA
T4 sequence (P05556 21-798): as the sequence (P05556 21-798) above
T6 sequence (Q13797 30-1035): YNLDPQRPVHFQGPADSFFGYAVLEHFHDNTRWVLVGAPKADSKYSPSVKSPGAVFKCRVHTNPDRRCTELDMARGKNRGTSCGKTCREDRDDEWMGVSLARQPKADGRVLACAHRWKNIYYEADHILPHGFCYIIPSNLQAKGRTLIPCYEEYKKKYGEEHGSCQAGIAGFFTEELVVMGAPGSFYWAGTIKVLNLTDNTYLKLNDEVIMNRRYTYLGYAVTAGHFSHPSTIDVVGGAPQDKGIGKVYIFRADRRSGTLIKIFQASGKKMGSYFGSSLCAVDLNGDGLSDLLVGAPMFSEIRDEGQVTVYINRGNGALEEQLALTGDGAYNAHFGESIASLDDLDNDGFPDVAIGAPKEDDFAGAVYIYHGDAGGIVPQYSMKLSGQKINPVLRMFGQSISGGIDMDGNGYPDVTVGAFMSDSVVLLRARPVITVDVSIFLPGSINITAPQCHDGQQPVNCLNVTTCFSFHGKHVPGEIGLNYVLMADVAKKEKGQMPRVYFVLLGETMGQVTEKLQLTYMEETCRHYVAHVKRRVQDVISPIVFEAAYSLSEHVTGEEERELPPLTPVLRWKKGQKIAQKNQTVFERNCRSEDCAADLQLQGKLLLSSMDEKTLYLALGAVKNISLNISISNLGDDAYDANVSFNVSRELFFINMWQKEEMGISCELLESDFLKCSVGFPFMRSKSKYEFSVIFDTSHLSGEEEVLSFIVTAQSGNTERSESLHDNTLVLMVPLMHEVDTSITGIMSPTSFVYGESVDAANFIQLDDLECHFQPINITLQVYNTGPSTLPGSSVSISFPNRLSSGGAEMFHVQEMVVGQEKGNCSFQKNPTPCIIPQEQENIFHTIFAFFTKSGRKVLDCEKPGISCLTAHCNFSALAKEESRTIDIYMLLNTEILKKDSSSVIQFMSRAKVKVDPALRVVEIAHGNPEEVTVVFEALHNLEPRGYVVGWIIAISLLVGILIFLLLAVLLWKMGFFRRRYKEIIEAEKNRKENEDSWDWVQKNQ
T6 sequence (P05556 21-798): as the sequence (P05556 21-798) above

Compound | IC50 (α6β1 integrin) [µM] | IC50 (α1β1 integrin [1]) [µM] | IC50 (α1β1 integrin [2]) [µM] | IC50 (α1β1 integrin [3]) [µM] | IC50 (α5β1 integrin) [µM] | effect on angiogenesis (fractal dimension) (angiogenesis) | IC50 (αvβ3 integrin) [µM] | IC50 (α9β1 integrin) [µM] | IC50 (α1β1 integrin [4]) [µM] | IC50 (α4β1 integrin) [µM] | IC50 (α2β1 integrin) [µM] | inhibition of tumor development (tumor volume) (Lewis lung carcinoma) | IC50 (αIIbβ3 integrin) [µM] | activity relative to obtustatin, mouse α1β1 integrin (α1β1 integrin [3]) | apoptosis (caspase-3) [5] | apoptosis (caspase-3) [6] | inhibition of α1β1 integrin-mediated adhesion of α1K562 cells to collagen IV (α1β1 integrin [1]; in words)
Eristostatin: short disintegrin compared with obtustatin (QEEPCATGPCCRRCKFKRAGKVCRVARGDWNDDYCTGKSCDCPKNPWNG) [reference compound] | > 10 | > 10 | > 10 | > 10 | > 10 | no affect | 2 | > 10 | > 10 | > 10 | > 10 |  |  |  |  |  | 
Echistatin: short RGD-containing disintegrin (QCESGPCCRNCKFLKEGTICKRARGDDMDDYCNGKTCDCPRNPHKGPAT) [reference compound] | > 10 | > 10 | > 10 | > 10 | 0.05 |  | 0.0001 | > 10 | > 10 | > 10 | > 10 | no effect | 0.05 |  |  |  | 
Viperisrastatin (CTTGPCCRQCKLKPAGTTCWKTSRTSHYCTGKSCDCPVYQG) | > 10 | 8e-05 | 2e-06 | 0.00025 | > 10 |  | > 10 | > 10 | 2e-05 | > 10 | > 10 |  | > 10 | similar |  |  | 
TNF-α |  |  |  |  |  |  |  |  |  |  |  |  |  |  | induced apoptosis | induced apoptosis | 
CC[C@]1(O)C[C@H]2CN(CCc3c([nH]c4ccccc34)[C@@](C(=O)OC)(c3cc4c(cc3OC)N(C=O)[C@H]3[C@@](O)(C(=O)OC)[C@H](OC(C)=O)[C@]5(CC)C=CCN6CC[C@]43[C@@H]65)C2)C1 [vincristine] |  |  |  |  |  |  |  |  |  |  |  |  |  |  | induced apoptosis | induced apoptosis | 
CKLKPAGTTC (obtustatin fragment) |  |  |  |  |  |  |  |  |  |  |  |  |  |  |  |  | did not appreciably inhibit
